test: yeast display, Sf9 membrane polyspecificity reagent, FACS + sequencing; frameworks hold sequencing errors
Summary of the method: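 After 36–48 hours of galactose induction, yeast (Saccharomyces cerevisiae BJ5465) displaying a synthetic nanobody library were stained at 4 °C for 1 hour with 10% biotinylated, detergent-solubilized Sf9 membrane reagent. Streptavidin microbeads enriched the stained cells before FACS sorting into low and high (top ~1%) gates on anti-HA and streptavidin fluorescence. Each clone's polyreactivity label reflects its gate of origin.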

Sequence	polyreactivity (PSR sort gate)
QVQLVESAGGLVQAGGSLRLSCAASGSIFPFYAMRWYRQAPGKERELVATINFSGGSTYYADSVKGRFTISRDNAKNTVYLQMNSLKPEDTAVYYCAASYGAKYIVLYDYWGQGTQVTVSS	low polyreactivity
QVQLVESAGGLVQAGGSLRLSCAASGSIFPWNAMGWYRQAPGKERELVAAISYSGTRTYYADSVKGRFTISRDNAKNTVYLQMNSLKPVDTAVYYCNARGYTRSYVKYDYWGQGTQVTVSS	high polyreactivity
QVQLVESAGGLVQAGGSLRLSCAASGSIFQGNARGWYRQAPGKERELVAAISQSGGRTYYADSVKGRFTISRDNAKNTVYLQMISLKPEDTAVYYCNTTKVYRLRFDYWGQGTQVTVSS	low polyreactivity
QVQLVESAGGLVQAGGSLRLSCAASGSIFSTYVMGWYRQAPGKERELVAAISRRGGSTYYADSVKGRFTISRDNAKNTVYLQMNSLKPEDTAVSYCAADGTVGRRDYWGQGTQVTVSS	high polyreactivity
QVQLVESAGGLVQAGGSLRLSCAASGSIFYGNAMGWYRQAPGKERELVASITYSGGTTNYADSVKGRFTISRDTAKNTVYLQMNSLKPEDTAVYYCAADAIPDSVWYWEYDYWGQGTQVTVSS	low polyreactivity
QVQLVESAGGLVQAGGSLRLSCAASGSIFYYYAMGWYRQAPGKERELVATISSSSGSTYYADSVKGRFTISRDNAKYTVYLQMNRLKPEDTAVYYCATVSGSVWQRWVYANYDFWGQGTQVTVSS	low polyreactivity
QVQLVESAGGLVQAGGSLRLSCAASGSIIADNAMGWDRQSPGTERELVAAITGGDSTYYADSVKGRFTISRDNAKNTVYLQMNSLKPEDTAVYYCNADRFRGRTVDGDYWGQGTQVTVSS	low polyreactivity
QVQLVESAGGLVQAGGSLRLSCAASGSISGYAMGWYRQAPGKQRELVAAISRRGGSTYYADSVKGRFTISRDNEKNTVYLQMNSLKPEDTAVYFCAADPYTRQPNSDRYYWGQGTQVTVSS	high polyreactivity
QVQLVESAGGLVQAGGSLRLSCAASGSTFDYYAMGWYRQAPGKERELVASITWGDGSTYYADSVKGRFTISRDNAKNTVYLQMNSLKPEDTAVYYCNADDTQLESYAPGHGYDYWGQGTQVTVSS	low polyreactivity
QVQLVESAGGLVQAGGSLRLSCAASGSTFPFYAMGWYRPAPGKERELVAAISASGVRTYYADSVKGRFTISRDNAKNTVYLQMNSLKPEDTAVDYCNRVYSTSRITQYEFDYWGQGTQVTVSS	low polyreactivity
QVQLVESAGGLVQAGGSLRLSCAASGSTFPKYAMGWSRQAPGKERELVASISVTTGSTYYADSVKGRFTISRDNAKNTVYLQMNSLKPEDTAVYYCAKRTYSRKFRGAYNYGGQGTQVTVSS	high polyreactivity
QVQLVESAGGLVQAGGSLRLSCAASGSTFQSYAMGWYRQAPGKDRELVAAISSGGITYYADSVKGRFTISRDNAKNTVYLQMTSLIPEDTAVYYCAKVPTYLIYNRYSRYDYWGQGTQVTVSS	low polyreactivity
QVQLVESAGGLVQAGGSLRLSCAASGSTFSRYAMGWSRQAPGNERELVAAISSGGNTYDADSVKGRFTISRDNAKNTVYLQMNSLKPEDTPVYYCIADRYTWYPWTKCFYYWGQGTHVTVSS	high polyreactivity
QVQLVESAGGLVQAGGSLRLSCAASGSTFSYNAMGWYRQAPGKEREFVAAISSRGGNTFYADSVKGRFTISRDNAKNTVYLQMNSLKPEDTAVYYCAARFNRPYDYWGQGTQVTVSS	low polyreactivity
QVQLVESAGGLVQAGGSLRLSCAASGSTFYFNAMGWYRQAPGKERELVAAISGGGGTNYADSVKGRFTISRDNAKNTVYLQMTSLKPEDTAVYYCAARNRGLRLSNYFGGNYNRDYWGQGTQVTVSS	low polyreactivity
QVQLVESAGGLVQAGGSLRLSCAASGSTFYLNAMGWYRQAPGKERELVATINSSGSTYYADSVKGRFTISRDNAKNTVYLQMNSLKPEDTAVYYCNTVDSYVRSDYWGQGTQVPVSS	low polyreactivity
QVQLVESAGGLVQAGGSLRLSCAASGSTFYRYAMGGSRQAPGKERELVAAISSSGGRTYYADSVKGRFTISRDNAKNTVYLQMNSLKPEDTAVYFCATRVGDFHRGKRKRYEYWGQGTQVTVSS	high polyreactivity
QVQLVESAGGLVQAGGSLRLSCAASGSTFYRYAMGWYRQAPGKERELVAAISTRGGSTYYADSVKGRFTISRDNAKNTVYLQMNSLKPEDTAVYYCAAKSGSPDDYDYWGQGTQVTVSS	high polyreactivity
QVQLVESAGGLVQAGGSLRLSCAASGSTFYTYAMGWYRQAPGKERELVAAISWSGGSTYYADSVKGRFTISRDNAKNSVYLQMNSLKPEDTAVYYCAARRVKYISLDYWGQGTQVTVSS	low polyreactivity
QVQLVESAGGLVQAGGSLRLSCAASGSTYTSYAMGWYRQAPGKERELVAAITRNGGTTYYADSVKGRFTLSRDNAKNTVYLQMNSLKPEDTAVYYCNAPHYYYITSDRRFDYWGQGTQVTVSS	low polyreactivity
QVQLVESAGGLVQAGGSLRLSCAASGTIFALYAMGWYRQAPGKERELVARITRGGGSTYYADSVKGRFTISRDNAKNTVYLQMNSLKPEDTAVYYCAAARWSQYRTWMNYWGQGTQVTVSS	high polyreactivity

Sequence	polyreactivity (PSR sort gate)
QVQLVESAGGLVQAGGSLRLSCAASGYIFSDNTMGWYRQAPGKERELVAVITSGTSTSYADSVKGRFTISRDNAKNTVYLQMNSLKPEDSAVYYAARTGQYKTYGEYDYWGQGTQVTVSS	low polyreactivity
QVQLVESAGGLVQAGGSLRLSCAATGLIFKYYAMVWYRQAPGKEREMVATITRGGGSTYYADSVKGRFTISRDNAKNTVYFQMNSLKPEDTAVYYCAKRTSWKYGYWGQGTQVTVSS	high polyreactivity
QVQLVESAGGLVQAGGSLRLSCADSGSIFRYYAMGWYRQAQGQERELVAAISYSGGRTYYADSVKGRFTISRDNAKNTVYLQMNSLKPEDTAVYYCNAGAGKRGYDYWGQGTQVTVSS	low polyreactivity
QVQLVESAGGLVQAGGSLRLSCAPSGFIFKHNAMGWYRQAPGKERECVAAISWSGDSTYYADSVKGRFTISRDNAKNTVYLQMNSLKPEDTAVYYCAAVRALRKVRDYYYWGQGTQVTVSS	high polyreactivity
QVQLVESAGGLVQAGGSLRLSCAPSGSIFVAYAMGGYLQAPGKERELVAAISWRSGSTYYADSVKGRFTISRDNAKNTVYLQMNSLKPEDTAVYYSAAKQDQDYYWGQGTQVTVSS	low polyreactivity
QVQLVESAGGLVQAGGSLRLSCPASGGIFSWYHMGWYRQEPGKERELVAAISWSGGSTYYADSVKGRFTISRDNAKNTVYLLMNSLKPEDTAVYYCADYTADDYDYWGQGTQVTVSS	high polyreactivity
QVQLVESAGGLVQAGGSLRLSCPASGRTSVINAMGWYRQSPGKERELVAAISSDGITNYADSVKGRFTISRDNAKNTVYLQMISLKPEDTAVYYCAAEWYYVYIAPYDYWGQGTQVTVSS	low polyreactivity
QVQLVESAGGLVQAGGSLRLSCYASGSIFTRNAMGWYRQAPGKERELVASISYSGGNTYYADSVKGRFTISRDNAKNTVYLQMNSLKPEDTAVYYCAALYSVYRDGYYWGQGTQVTVSS	high polyreactivity
QVQLVESAGGLVQAGGSLRLSSDASGFTFYRYAIGWYIQAPGKEREFVAAISWRGTSTYYADSVKGRFKISRDNANNTVYLQMNSLKPEETAVYYCTARRDICWGYHMDYWGQGTQVTVSS	high polyreactivity
QVQLVESAGGLVQAGGSLSLICAASGIIFGGNAMGWSRQAPGKERELVAAISRSGGSTYYADSVKGRFTISRDNAKNTVYLQMTSLKPEDTAVYYCNAYYRYFRSIYDSCGQGTQVTVSS	high polyreactivity
QVQLVESAGGLVQAGGSLSLSCAASGFIFDGYAMGWYRQAPGKERELVAAINFSGGSTYYADSVKGRFTISRDNAKNTVYLQMNSLKPEDTSVYYCNADLEWYWVQFGYGYWGQGTQVTVSS	low polyreactivity
QVQLVESAGGLVQAGGSLSLSCAASGRIFTDYAMGWYRQAPGKERELVARISRSDGSTYYADSVKGRFSISRDNAKNNVYLQMNSLKAEDTAVYYCAAQWTDGRRDHWWDKGFYYWGLGTQVTVSS	low polyreactivity
QVQLVESAGGLVQAGGTLSLSCAASGSTFYNYAMGWYRQAPGTETELVAAISSGGSTNYADSVKGRFTISRDNAKNTVYLQMNSLKPEDTAVYYCARRHRVYPSRIGHDYWGQGTQVTVSS	low polyreactivity
QVQLVESAGGLVQAGVSLRLSCDASGRIFRHNTMGWYRQAPGKERELVAAIRYSGGRTYYADSVKGRFTISRDNAKNTVYLQMNSLKPEDTAVYYCAKDTGQGYYWGQGTQVTVSS	high polyreactivity
QVQLVESAGGLVQARVSLRLSSAASGRTIPTYTMGWYRQAPGKERELVAAITRGGSTKYADSVKGRFTISRDNAKNTVYLQMNSLKPEDTAVYYCAAVYRYRHSFAYYRHEMDYWGLGTQVTVSS	low polyreactivity
QVQLVESAGGLVQEGGSLRLSCAASGSISAPYAMGWYRQAPGKERELVAAISWRGGRTYYADSVKGRFTISRDNAKNTVYLQMNSLKTEDTAVDYCAAKFRLGQFDYDYWGQGTQVTVSS	high polyreactivity
QVQLVESAGGVVQAGGSLRKSCAASLGWYRQAPGKERELVATITSDAGTNYADSVKGRFTISRDNAKNTVYLQMNSLKPEDTAVYYCAATPPYRVYGVNYWGQGTQVTVSS	low polyreactivity
QVQLVESARGLVQAGGSLRLRCAASGSTLSVYVMGWYRQAPGKERELVAAITRGGSTNYADSVKGRFTISRDNAKNTVYLQINSLNPEDTAVYYCAARSFVYYHHGEGSRSGRYYYWGQGTQVTVSS	high polyreactivity
QVQLVESAVGLVQAGGSRRLSCAASGRTFDSNAMGWYRQAPGKEREFVAAISWSGGSTYYADSVKGRFTISRDNAKNTVYLQMNSLKREETAVYYCNRLGRHAPATRYGYWGLGTQVTVSS	high polyreactivity
QVQLVESCGGIVQAGGSLRLRCAASGLIFVANAMGWYRQAPVKESEMVAAISRYGGITYYADSVKGRFTISRDNAKNTVYLEMNSLKPEDTAVYYCAKNLPSNGHYDYWGQGTQVTVSS	low polyreactivity

— the nanobody polyreactivity screen of Harvey et al. (2022)
